Experimental data published in patent publication US20120020912A1 (WISCONSIN ALUMNI RESEARCH FOUNDATION, published 2012).

B1: AR708 peptide (peptide)
peptide: LGERQLVHVV
notes: Synthetic 10-mer derived from the AR LBD

Molecular target: T1, HLA-A2 on T2 cells (human)
T1 construct: whole, on cells; MHC class I molecule on T2 cells
Test: T2 binding assay: T2 cells pulsed with 50 ug/mL peptide overnight, surface HLA-A2 by flow cytometry (BB7.2)

| In Vitro HLA-A2 Expression (Relative Mean Flourescent Intensity) | Binder |
| --- | --- |
| 2.15 ratio to unloaded T2 cells | RMLYFAPDLV (Synthetic 10-mer) [AR761 peptide] |
| 1.65 ratio to unloaded T2 cells | KLLDSVQPI (Synthetic 9-mer derived from the AR LBD) [AR862 peptide] |
| 2.54 ratio to unloaded T2 cells | LLLFSIIPV (Synthetic 9-mer) [AR811 peptide] |
| 2.66 ratio to unloaded T2 cells | ALLSSLNEL (Synthetic 9-mer derived from the AR LBD) [AR700 peptide] |
| 1.37 ratio to unloaded T2 cells | VLEAIEPGV (Synthetic 9-mer derived from the AR LBD) [AR677 peptide] |
| 1.32 ratio to unloaded T2 cells | WMGLMVFAM (Synthetic 9-mer derived from the AR LBD) [AR742 peptide] |
| 1.16 ratio to unloaded T2 cells | B1 |
| 1.01 ratio to unloaded T2 cells | FSIIPVDGL (Synthetic 9-mer derived from the AR LBD) [AR814 peptide] |
| 1.33 ratio to unloaded T2 cells | QLTKLLDSV (Synthetic 9-mer) [AR859 peptide] |
| 2.19 ratio to unloaded T2 cells | FLCMKALLL (Synthetic 9-mer) [AR805 peptide] |
